Experiments:
[1] = target: human LAG-3 protein (Lymphocyte activation gene-3) on the cell surface (human) (UniProt P18627); assay: flow cytometry on CD4+ cells of SEB-stimulated PBMCs, mean of three donors
[2] = target: IMP321 (recombinant soluble human LAG-3Ig fusion protein) (human) (UniProt P18627); assay: FACS, LAG-3Ig-Alexa 488 (1 µg/ml) pre-incubated with antibody 11000 ng/ml, then bound to Raji (MHC class II+) cells
[3] = target: IMP321 (recombinant soluble human LAG-3Ig fusion protein) (human) (UniProt P18627); assay: FACS, LAG-3Ig-Alexa 488 (1 µg/ml) with antibody 0 ng/ml (no-antibody value), bound to Raji (MHC class II+) cells
[4] = target: human LAG-3 protein (Lymphocyte activation gene-3) on the cell surface (human) (UniProt P18627); assay: flow cytometry on CD4+ cells of SEB-stimulated PBMCs (Donor 1); antibody 126 ng/ml
[5] = target: human LAG-3 protein (Lymphocyte activation gene-3) on the cell surface (human) (UniProt P18627); assay: flow cytometry on CD8+ cells of SEB-stimulated PBMCs (Donor 1); antibody 541 ng/ml
[6] = target: IMP321 (recombinant soluble human LAG-3Ig fusion protein) (human) (UniProt P18627); assay: FACS, LAG-3Ig-Alexa 488 (1 µg/ml) pre-incubated with antibody 297 ng/ml, then bound to Raji (MHC class II+) cells
[7] = target: human LAG-3 protein (Lymphocyte activation gene-3) on the cell surface (human) (UniProt P18627); assay: flow cytometry on LAG-3-transfected CHO cells; antibody 100 ng/ml
[8] = target: human LAG-3 protein (Lymphocyte activation gene-3) on the cell surface (human) (UniProt P18627); assay: flow cytometry on CD8+ cells of SEB-stimulated PBMCs (Donor 1); antibody 1.6 ng/ml
[9] = target: IMP321 (recombinant soluble human LAG-3Ig fusion protein) (human) (UniProt P18627); assay: FACS, LAG-3Ig-Alexa 488 (1 µg/ml) pre-incubated with antibody 3300 ng/ml, then bound to Raji (MHC class II+) cells
[10] = target: human LAG-3 protein (Lymphocyte activation gene-3) on the cell surface (human) (UniProt P18627); assay: flow cytometry on LAG-3-expressing CHO cells, mean of four independent experiments
[11] = target: human LAG-3 protein (Lymphocyte activation gene-3) on the cell surface (human) (UniProt P18627); assay: flow cytometry on CD4+ cells of SEB-stimulated PBMCs (Donor 1); antibody 29 ng/ml
[12] = target: IMP321 (recombinant soluble human LAG-3Ig fusion protein) (human) (UniProt P18627); assay: Biacore, LAG-3Ig on the chip and 17B4 antibody in the running buffer
[13] = target: human LAG-3 protein (Lymphocyte activation gene-3) on the cell surface (human) (UniProt P18627); assay: flow cytometry on CD8+ cells of SEB-stimulated PBMCs (Donor 1); antibody 7 ng/ml
[14] = target: IMP321 (recombinant soluble human LAG-3Ig fusion protein) (human) (UniProt P18627); assay: FACS, LAG-3Ig-Alexa 488 (1 µg/ml) pre-incubated with antibody 89 ng/ml, then bound to Raji (MHC class II+) cells
[15] = target: human LAG-3 protein (Lymphocyte activation gene-3) on the cell surface (human) (UniProt P18627); assay: flow cytometry on CD8+ cells of SEB-stimulated PBMCs (Donor 1); antibody 0.4 ng/ml

human LAG-3 protein (Lymphocyte activation gene-3) on the cell surface (human), sequence (P18627 other isoform, or with tags, fused parts or gaps): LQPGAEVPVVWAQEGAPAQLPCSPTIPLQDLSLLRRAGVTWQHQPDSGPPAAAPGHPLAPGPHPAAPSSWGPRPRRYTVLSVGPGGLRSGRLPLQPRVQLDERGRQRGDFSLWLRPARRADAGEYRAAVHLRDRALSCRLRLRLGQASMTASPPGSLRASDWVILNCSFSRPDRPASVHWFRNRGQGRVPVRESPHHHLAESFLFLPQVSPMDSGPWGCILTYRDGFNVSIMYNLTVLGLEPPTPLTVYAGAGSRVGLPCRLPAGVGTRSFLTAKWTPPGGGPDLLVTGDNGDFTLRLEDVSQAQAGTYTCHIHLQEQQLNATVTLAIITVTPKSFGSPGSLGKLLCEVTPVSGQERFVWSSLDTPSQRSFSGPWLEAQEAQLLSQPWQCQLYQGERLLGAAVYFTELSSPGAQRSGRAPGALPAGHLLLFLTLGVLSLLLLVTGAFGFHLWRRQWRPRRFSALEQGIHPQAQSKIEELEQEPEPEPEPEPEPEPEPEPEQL
IMP321 (recombinant soluble human LAG-3Ig fusion protein) (human), sequence (P18627 23-450): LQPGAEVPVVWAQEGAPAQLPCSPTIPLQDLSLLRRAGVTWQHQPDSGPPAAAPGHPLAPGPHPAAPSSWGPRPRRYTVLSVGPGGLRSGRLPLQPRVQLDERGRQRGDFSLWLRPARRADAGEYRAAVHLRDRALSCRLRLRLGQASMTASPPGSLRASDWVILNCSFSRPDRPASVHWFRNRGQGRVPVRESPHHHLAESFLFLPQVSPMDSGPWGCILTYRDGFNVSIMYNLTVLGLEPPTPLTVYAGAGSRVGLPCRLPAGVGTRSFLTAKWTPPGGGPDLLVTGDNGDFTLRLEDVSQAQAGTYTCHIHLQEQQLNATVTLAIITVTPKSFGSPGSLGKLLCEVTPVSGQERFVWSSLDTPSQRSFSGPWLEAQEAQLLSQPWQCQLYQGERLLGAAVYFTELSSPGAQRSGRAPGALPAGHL

antagonistic anti-LAG-3 mouse monoclonal antibody 17B4
EC50 [1]: 800 pM
MFI of sLAG-3Ig-Alexa 488 [2]: -11 MFI
MFI of sLAG-3Ig-Alexa 488 [3]: 284 MFI
MFI [4]: 1240 MFI
MFI [5]: 4090 MFI
MFI of sLAG-3Ig-Alexa 488 [6]: 73 MFI
MFI [7]: 3170 MFI
MFI [8]: 309 MFI
MFI of sLAG-3Ig-Alexa 488 [9]: 13 MFI
EC50 [10]: 700 pM
MFI [11]: 675 MFI
Kd [12]: 121 pM
koff [12]: 0.000132 s⁻¹
kon [12]: 1.09e+06 M⁻¹ s⁻¹
MFI [13]: 606 MFI
MFI of sLAG-3Ig-Alexa 488 [14]: 214 MFI
MFI [15]: 195 MFI

From US20190153112A1 (IMMUTEP S A S, published 2019)
